Test results taken from patent US20240077502.

Tests used:
Btn-LMVGG = target: T1, Btn-LMVGG
T1 chain: GLMVGGV

Abz-LMVGGK(Dnp)-CONH2 = target: T2, Abz-LMVGGK(Dnp)-CONH2
T2 chain: LMVGGK

[1] = target: T3, endogenous fetuin A in human plasma, P02765
T3 chain: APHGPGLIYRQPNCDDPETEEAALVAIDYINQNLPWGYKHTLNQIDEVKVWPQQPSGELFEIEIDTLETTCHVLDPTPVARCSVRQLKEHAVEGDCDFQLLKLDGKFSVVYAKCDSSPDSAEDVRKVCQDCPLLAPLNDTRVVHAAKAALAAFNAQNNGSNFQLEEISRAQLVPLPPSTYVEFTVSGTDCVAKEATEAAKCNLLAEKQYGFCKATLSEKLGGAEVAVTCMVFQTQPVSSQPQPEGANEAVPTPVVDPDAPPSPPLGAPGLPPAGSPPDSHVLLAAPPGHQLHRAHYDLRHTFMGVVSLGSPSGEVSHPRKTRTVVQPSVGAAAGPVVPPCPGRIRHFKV

[2] = target: T4, LPESG substrate (flow cytometry panel)
T4 chain: LPESG

Abz-LPESGK(Dnp)-CONH2 = target: T5, Abz-LPESGK(Dnp)-CONH2
T5 chain: LPESGK

purified fetuin A = target: T6, purified fetuin A
T6 sequence (P02765 19-300, species assumed, looked up): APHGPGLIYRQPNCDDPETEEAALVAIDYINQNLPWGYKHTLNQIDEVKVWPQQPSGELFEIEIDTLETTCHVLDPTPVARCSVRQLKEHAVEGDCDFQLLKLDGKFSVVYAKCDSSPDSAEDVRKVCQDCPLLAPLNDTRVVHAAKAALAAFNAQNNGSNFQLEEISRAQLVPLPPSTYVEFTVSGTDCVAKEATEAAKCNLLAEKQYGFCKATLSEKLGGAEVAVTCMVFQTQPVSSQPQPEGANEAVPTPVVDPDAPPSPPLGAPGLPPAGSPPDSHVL
T6 sequence (P02765 341-367, species assumed, looked up): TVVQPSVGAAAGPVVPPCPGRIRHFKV

[3] = target: T7, LPPAG substrate (flow cytometry panel)
T7 chain: LPPAG

Sequence of Aβ40, P05067 (P05067 whole entry, looked up): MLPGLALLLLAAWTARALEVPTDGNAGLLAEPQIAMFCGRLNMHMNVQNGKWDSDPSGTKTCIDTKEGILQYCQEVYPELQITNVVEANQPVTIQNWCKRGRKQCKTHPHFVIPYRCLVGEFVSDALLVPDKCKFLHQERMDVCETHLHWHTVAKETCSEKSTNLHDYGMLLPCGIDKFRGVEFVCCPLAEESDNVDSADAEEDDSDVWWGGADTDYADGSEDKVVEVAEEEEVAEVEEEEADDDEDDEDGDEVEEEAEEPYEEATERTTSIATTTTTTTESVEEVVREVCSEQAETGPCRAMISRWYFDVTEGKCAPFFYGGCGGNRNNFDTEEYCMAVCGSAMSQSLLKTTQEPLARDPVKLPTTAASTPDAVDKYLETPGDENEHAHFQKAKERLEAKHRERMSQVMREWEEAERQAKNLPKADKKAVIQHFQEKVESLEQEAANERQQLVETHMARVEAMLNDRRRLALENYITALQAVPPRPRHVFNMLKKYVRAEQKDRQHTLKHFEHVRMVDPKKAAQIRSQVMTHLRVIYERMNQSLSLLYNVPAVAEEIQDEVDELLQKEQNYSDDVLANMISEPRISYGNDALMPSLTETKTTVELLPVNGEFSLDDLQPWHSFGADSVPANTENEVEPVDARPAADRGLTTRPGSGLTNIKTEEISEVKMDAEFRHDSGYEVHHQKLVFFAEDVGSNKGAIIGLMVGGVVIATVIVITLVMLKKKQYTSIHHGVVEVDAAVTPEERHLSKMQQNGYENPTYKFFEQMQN
Sequence of Aβ42, P05067 (P05067 whole entry, looked up): as above
Sequence of AβM1-40, P05067 (P05067 whole entry, looked up, tested part not stated): as the sequence (P05067 whole entry, looked up) above
Sequence of AβM1-42, P05067 (P05067 whole entry, looked up, tested part not stated): as the sequence (P05067 whole entry, looked up) above
Sequence of Aβ43, P05067 (P05067 whole entry, looked up): as above

B1: minimal mutant (4S.6 with S118I, G134R, R159C, K177R, V182A, and R197S mutations) (protein)
chain: QAKPQIPKDKSKVAGYIEIPDADIKEPVYPGPATREQLDRGVSFVEENESLDDQNISIIGHTAIDRPNYQFTNLRAAKKGSMVYFKVGNETRKYKMTSICNVKPTAVEVLDEQKGKDRQLTLATCDDYNVETGVWETSKIFVATEVK
fold change of activity against 4S.6 (flow cytometry) (Btn-LMVGG): 4-fold improvement in LMVGG [SEQ ID NO: 3] activity relative to 4S.6
fold change of activity against SrtAβ (flow cytometry) (Btn-LMVGG): 23-fold lower activity than SrtAβ

B2: round 7 consensus sequence (R7) reversion mutant Y94R (protein)
chain: QAKPQIPKDKSKVAGYIEIPDADIKEPVYPGPATREQLDRGVSFVEENESLDDQNISIIGHTALLRPNYQFTNLRAAKIGSMVYFKVGNETRKYKMTSIRNVKPTAVEVLDEQEGKDKQLTLATCDDYNFETGVWESSKIFVATEVK
fold change of activity against the round 7 consensus sequence (flow cytometry, 100-1000 nM Btn-LMVGG) (Btn-LMVGG): Reversion mutant Y94R showed a 2.3-fold improvement on average across substrate concentrations compared to the round 7 consensus sequence

B3: sortase 4S.6 (protein)
chain: QAKPQIPKDKSKVAGYIEIPDADIKEPVYPGPATREQLDRGVSFVEENESLDDQNISISGHTAIDRPNYQFTNLGAAKKGSMVYFKVGNETRKYKMTSIRNVKPTAVEVLDEQKGKDKQLTLVTCDDYNVETGVWETRKIFVATEVK
kinetic parameters (Abz-LMVGGK(Dnp)-CONH2): 4S.6 activity on LMVGG [SEQ ID NO: 3] was not detectable
labeling with GGGK(Btn) in human plasma, Western blot [1]: 4S.6, but not SrtAβ, labels fetuin A
substrate preference, LPESG over LMVGG (flow cytometry) [2]: 49-fold preference for LPESG [SEQ ID NO: 4] over LMVGG [SEQ ID NO: 3]
KM (Abz-LPESGK(Dnp)-CONH2): KM=610 µM (95% CI=90 to 5550 µM)
kcat (Abz-LPESGK(Dnp)-CONH2): kcat=0.36 s-1 (95% CI=0.22 to 0.96 s-1)

B4: round 7 consensus sequence (R7) reversion mutant L123I (protein)
chain: QAKPQIPKDKSKVAGYIEIPDADIKEPVYPGPATYEQLDRGVSFVEENESLDDQNISIIGHTAILRPNYQFTNLRAAKIGSMVYFKVGNETRKYKMTSIRNVKPTAVEVLDEQEGKDKQLTLATCDDYNFETGVWESSKIFVATEVK
fold change of activity against the round 7 consensus sequence (flow cytometry, 100-1000 nM Btn-LMVGG) (Btn-LMVGG): L123I (1.5-fold)

B5: round 7 consensus sequence (R7) reversion mutant L124D (protein)
chain: QAKPQIPKDKSKVAGYIEIPDADIKEPVYPGPATYEQLDRGVSFVEENESLDDQNISIIGHTALDRPNYQFTNLRAAKIGSMVYFKVGNETRKYKMTSIRNVKPTAVEVLDEQEGKDKQLTLATCDDYNFETGVWESSKIFVATEVK
fold change of activity against the round 7 consensus sequence (flow cytometry, 100-1000 nM Btn-LMVGG) (Btn-LMVGG): L124D (1.1-fold)

B6: SrtA 8.5-H3 (protein)
chain: MKKWTNRLMTIAGVVLILVAAYLFAKPHIDNYLHDKDKDEKIEQYDKNVKEQASKDKKQQARPQIPKDKSKVAGYIEIPDADIKEPVYPGPATREQLDRGVSFVEEDESLDDQNISIIGHTALLRPNYQFTNLRAAKIGSMVYFKVGNETRKYKMTSIRNVKPTAVEVLDEQEGKDRQLTLATCDDYNIETGVWESSKIFVATEVK
KM (Abz-LMVGGK(Dnp)-CONH2): KM=52 µM (95% CI=29 to 103 µM)
kcat (Abz-LMVGGK(Dnp)-CONH2): kcat=0.012 s-1 (95% CI=0.009 to 0.017 s-1)
percent of substrate converted to product (HPLC assay for SrtA activity) (Abz-LMVGGK(Dnp)-CONH2): converting 10% of M substrate to product in two hours
labeling with GGGK(Btn), Western blot (purified fetuin A): Labeled fetuin A is detected by Western blot
labeling with GGGK(Btn) in human plasma, Western blot [1]: Western blot of overnight reaction of SrtA 8.5-H3 (50 µM) and GGGK[SEQ ID NO: 6](Btn) (1 mM) in human plasma shows labeling of endogenous fetuin A

B7: SrtAβ (protein)
chain: MKKWTNRLMTIAGVVLILVAAYLFAKPHIDNYLHDKDKDEKIEQYDKNVKEQASKDKKQQAKPQIPKDKSKVAGYLEIPDADIKEPVYPGPATREQLDRGVCFVDEDESLDDQNISIIGHTALLRPHYQFTNLRAAKLDSIVYFTVGNETRRYKITSICNVRPTAVEVLDEHEGKDRQLTLATCDDYNYETGVWESSKIFVATEVR
change in substrate preference against 4S.6 (flow cytometry) (Btn-LMVGG): 1,470-fold change in preference to favor LMVGG [SEQ ID NO: 3] over LPESG [SEQ ID NO: 4]
fold change of activity against 4S.6 (flow cytometry, yeast display) (Btn-LMVGG): 28-fold increased activity on LMVGG
substrate preference, LMVGG over LPESG (flow cytometry) (Btn-LMVGG): 30-fold preference for LMVGG [SEQ ID NO: 3] over LPESG [SEQ ID NO: 4]
modification by the sortase (Aβ43, P05067): SrtAβ has been shown to modify Aβ40, Aβ42, and Aβ43
biotinylated product formed in human plasma (streptavidin capture ELISA) (Aβ40, P05067): 1.5 µM SrtAβ generating 2.3 µM of biotinylated product from 5 µM Aβ40 in two hours
lowest Aβ40 concentration at which labeling was observed in human plasma (m266 capture ELISA) (Aβ40, P05067): labeling of Aβ40 spiked into human plasma at concentrations as low as 5 nM was observed
modification by the sortase (Aβ40, P05067): SrtAβ has been shown to modify Aβ40, Aβ42, and Aβ43
yield of transpeptidation products with glycine nucleophiles (HPLC) (Aβ40, P05067): the expected transpeptidation products were observed in yields of 80-88%
KM (Abz-LMVGGK(Dnp)-CONH2): KM=128 µM (95% CI=87 to 198 µM)
kcat (Abz-LMVGGK(Dnp)-CONH2): kcat=0.018 s-1 (95% CI=0.015 to 0.023 s-1)
conversion to transpeptidation product with 200 µM GGGRR (HPLC) (Aβ42, P05067): as opposed to 50% when reacted with 200 µM GGGRR
conversion to transpeptidation product with 1 mM GGGRR (HPLC) (Aβ42, P05067): 64% of the Aβ42 was converted to the expected product when reacted with 1 mM GGGRR
modification by the sortase (Aβ42, P05067): SrtAβ has been shown to modify Aβ40, Aβ42, and Aβ43
activity on fetuin A in human plasma (streptavidin pulldown, Coomassie) [1]: a sortase variant with greatly reduced activity on fetuin A relative to the starting sortase 4S.6 was generated
labeling with GGGK(Btn) in human plasma, Western blot [1]: 4S.6, but not SrtAβ, labels fetuin A
fold change of activity against 4S.6 (flow cytometry, yeast display) [2]: 53-fold reduced activity on LPESG
kinetic parameters (HPLC assay) (Abz-LPESGK(Dnp)-CONH2): SrtAβ activity on LPESG [SEQ ID NO: 4] was too low to establish accurate kinetic parameters
conversion to transpeptidation product with GGGK(Btn) (HPLC) (AβM1-40, P05067): 82% of the starting AβM1-40 was converted to the desired product
conversion to transpeptidation product with GGGRR (HPLC) (AβM1-42, P05067): 64% of the starting AβM1-42 was converted to the desired product
fold change of activity against 4S.6 (flow cytometry, yeast display) [3]: 11-fold reduced activity on LPPAG

B8: SrtAβ reversion mutant A182V (protein)
chain: MKKWTNRLMTIAGVVLILVAAYLFAKPHIDNYLHDKDKDEKIEQYDKNVKEQASKDKKQQAKPQIPKDKSKVAGYLEIPDADIKEPVYPGPATREQLDRGVCFVDEDESLDDQNISIIGHTALLRPHYQFTNLRAAKLDSIVYFTVGNETRRYKITSICNVRPTAVEVLDEHEGKDRQLTLVTCDDYNYETGVWESSKIFVATEVR
reduction of activity against SrtAβ (flow cytometry, yeast display) (Btn-LMVGG): 2 fold

B9: SrtAβ reversion mutant C159R (protein)
chain: MKKWTNRLMTIAGVVLILVAAYLFAKPHIDNYLHDKDKDEKIEQYDKNVKEQASKDKKQQAKPQIPKDKSKVAGYLEIPDADIKEPVYPGPATREQLDRGVCFVDEDESLDDQNISIIGHTALLRPHYQFTNLRAAKLDSIVYFTVGNETRRYKITSIRNVRPTAVEVLDEHEGKDRQLTLATCDDYNYETGVWESSKIFVATEVR
reduction of activity against SrtAβ (flow cytometry, yeast display) (Btn-LMVGG): 2 fold

B10: SrtAβ reversion mutant R177K (protein)
chain: MKKWTNRLMTIAGVVLILVAAYLFAKPHIDNYLHDKDKDEKIEQYDKNVKEQASKDKKQQAKPQIPKDKSKVAGYLEIPDADIKEPVYPGPATREQLDRGVCFVDEDESLDDQNISIIGHTALLRPHYQFTNLRAAKLDSIVYFTVGNETRRYKITSICNVRPTAVEVLDEHEGKDKQLTLATCDDYNYETGVWESSKIFVATEVR
reduction of activity against SrtAβ (flow cytometry, yeast display) (Btn-LMVGG): 2 fold

B11: SrtAβ reversion mutant R134G (protein)
chain: MKKWTNRLMTIAGVVLILVAAYLFAKPHIDNYLHDKDKDEKIEQYDKNVKEQASKDKKQQAKPQIPKDKSKVAGYLEIPDADIKEPVYPGPATREQLDRGVCFVDEDESLDDQNISIIGHTALLRPHYQFTNLGAAKLDSIVYFTVGNETRRYKITSICNVRPTAVEVLDEHEGKDRQLTLATCDDYNYETGVWESSKIFVATEVR
reduction of activity against SrtAβ (flow cytometry, yeast display) (Btn-LMVGG): 2 fold
